Experimental findings from the supplement of paper PMC10567573 are described below.

First the molecules themselves.
B1: KLHL14 (parent)
chain: CAVLDDSIYLVGGYSWSMGAYKSS
B2: ZBED3 (parent)
chain: GPGFHAGTSALWRHLRSAHRRELE
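Also: lentivirally expressed fusions sorted by FACS into six bins by GFP to DsRed ratio, PSI derived from sequencing read proportions per bin multiplied by bin number.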

In one data set the parent is B1. Kind of data set: protein stability index of a GFP-peptide fusion (GPS, HEK-293T) (PSI 1-6); higher = more stable. The following applies: c terminus: a fixed tail appended.
Regarding CAVLVDSIYLVGGYSWSMGAYKSS, the protein stability index came to 2.29.

Take CAVLSDSIYLVGGYSWSMGAYKSS: the protein stability index is 2. As for CAVLLDSIYLVGGYSWSMGAYKSS, the protein stability index came out at 3.33. Same read-out and setting: the value for CAVLADSIYLVGGYSWSMGAYKSS was 2.24; that for CAVLYDSIYLVGGYSWSMGAYKSS was 1.54.

On to CAVLNDSIYLVGGYSWSMGAYKSS, for which the protein stability index amounted to 4.88. Still for that read-out and setting: to CAVLDVSIYLVGGYSWSMGAYKSS belongs 1.97. The same measure, in the same setting: to CAVLDQSIYLVGGYSWSMGAYKSS belongs 1.95; to CAVLDISIYLVGGYSWSMGAYKSS, 3.34.

Consider CAVLDKSIYLVGGYSWSMGAYKSS, for which the protein stability index stood at 1.35. The same measure, in the same setting: the value for CAQLDDSIYLVGGYSWSMGAYKSS was 2.39; that for CAHLDDSIYLVGGYSWSMGAYKSS was 1.67; that for CADLDDSIYLVGGYSWSMGAYKSS was 1.57. Same read-out and setting: to CAWLDDSIYLVGGYSWSMGAYKSS belongs 2.71.

Turning to CAELDDSIYLVGGYSWSMGAYKSS, the protein stability index amounted to 2.77.

As for CALLDDSIYLVGGYSWSMGAYKSS, the protein stability index is 2.21. With CAPLDDSIYLVGGYSWSMGAYKSS, the protein stability index came out at 2.58.

In the case of CAYLDDSIYLVGGYSWSMGAYKSS, the protein stability index stood at 1.57. Take CAILDDSIYLVGGYSWSMGAYKSS: the protein stability index is 2.56. Still for that read-out and setting: the value for CANLDDSIYLVGGYSWSMGAYKSS was 2.57. On the same count and under the same terms, the value for CAVLDDSIYLVGGYSWSMGAYKHS was 1.57. Still for that read-out and setting: the value for CAVLDDSIYLVGGYSWSMGAYKKS was 2.43; that for CAVLDDSIYLVGGYSWSMGAYKTS was 2.72. With CAVLDDSIYLVGGYSWSMGAYKPS, the protein stability index came to 1.58. In the case of CAVLDDSIYLVGGYSWPMGAYKSS, the protein stability index worked out at 1.54. The same measure, in the same setting: to CAVLDDSIYLVGGYSWNMGAYKSS belongs 1.53; to CAVLDDSIYLVGGYSWLMGAYKSS, 3.11. The same measure, in the same setting: the value for CAVLDDSIYLVGGYSWEMGAYKSS was 2.25.

As to CAVLDDSIALVGGYSWSMGAYKSS, the protein stability index turned out to be 1.66. In the case of CAVLDDSIDLVGGYSWSMGAYKSS, the protein stability index worked out at 2.37.

With CAVLDDSIQLVGGYSWSMGAYKSS, the protein stability index is 1.62. As to CAVLDDSIWLVGGYSWSMGAYKSS, the protein stability index was 2.43. For CAVLDDSIGLVGGYSWSMGAYKSS, the protein stability index turned out to be 1.28.

With CAVLDDSIMLVGGYSWSMGAYKSS, the protein stability index stood at 3.37. On the same count and under the same terms, the value for CAVLDDSIHLVGGYSWSMGAYKSS was 2.3. For the variant CAVLDDSILLVGGYSWSMGAYKSS, the protein stability index turned out to be 3.26. Still for that read-out and setting: the value for CAVLDDSIPLVGGYSWSMGAYKSS was 2.22; that for CAVLDDSIYLVGGYSWSMGWYKSS was 2.87; that for CAVLDDSIYLVGGYSWSMGVYKSS was 2.02.

Regarding CAVLDDSIYLVGGYSWSMGDYKSS, the protein stability index is 2.27. Still for that read-out and setting: the value for CAVLDDSIYLVGGYSWSMGPYKSS was 1.33. As for CAVLDDSIYLVGGYSWSMGNYKSS, the protein stability index was found to be 3.33.

Take CAVLDDSIYLVGGYSWSMGRYKSS: the protein stability index amounted to 1.74. Take CAVLDDSIYLVGGYSWSMGHYKSS: the protein stability index was 2.31. On the same count and under the same terms, to CAVLDDSIYLVGGYSWSMGYYKSS belongs 2.9; to CAVLDDSIYLVGGYSWSMGKYKSS, 1.11; to CAVLDDSIYLVGGYSWSFGAYKSS, 2.48. On the same count and under the same terms, the value for CAVLDDSIYLVGGYSWSQGAYKSS was 2.67; that for CAVLDDSIYLVGGYSWSGGAYKSS was 1.68; that for CAVLDDSIYLVGGYSWSEGAYKSS was 2.53. Same read-out and setting: the value for CAVLDDSIYLVGGYSWSAGAYKSS was 2.89; that for CAVLDDSIYLVGGYSWSSGAYKSS was 1.73; that for CAVLDDSIYLVGGYSWSDGAYKSS was 2.09. With CAVLDDSIYTVGGYSWSMGAYKSS, the protein stability index was determined as 1.96. CAVLDDSIYFVGGYSWSMGAYKSS: the protein stability index came to 3.26.

In the case of CAVLDDSIYQVGGYSWSMGAYKSS, the protein stability index was determined as 1.23. On the same count and under the same terms, the value for CAVLDDSIYPVGGYSWSMGAYKSS was 1.1. For CAVLDDSIYRVGGYSWSMGAYKSS, the protein stability index came to 2.45. The same measure, in the same setting: to CAVLDDSIYWVGGYSWSMGAYKSS belongs 3.36; to CAVLDDSIYIVGGYSWSMGAYKSS, 1.68; to CAVLDDSIYCVGGYSWSMGAYKSS, 3.76.

Take CAVLDDSIYSVGGYSWSMGAYKSS: the protein stability index turned out to be 1.83. In the case of CAVLDDSIYLVGTYSWSMGAYKSS, the protein stability index was 3.26. With CAVLDDSIYLVGVYSWSMGAYKSS, the protein stability index amounted to 1.27. Still for that read-out and setting: to CAVLDDSIYLVGHYSWSMGAYKSS belongs 3.56. Regarding CAVLDDSIYLVGRYSWSMGAYKSS, the protein stability index worked out at 2.08. Consider CAVLDDSIYLVGCYSWSMGAYKSS, for which the protein stability index was determined as 2.36. On to CAVLDDSIYLVGAYSWSMGAYKSS, for which the protein stability index came to 3.61.

On to CAVLDDSIYLVGFYSWSMGAYKSS, for which the protein stability index is 2.97. For the variant CAVLDDSIYLVEGYSWSMGAYKSS, the protein stability index worked out at 3.21. On the same count and under the same terms, the value for CAVLDDSIYLVPGYSWSMGAYKSS was 2.79. In the case of CAVLDDSIYLVYGYSWSMGAYKSS, the protein stability index came out at 1.55.

The variants in another data set derive from B2. The description is as above. The following applies: c terminus: a fixed tail appended.
For NPGFHAGTSALWRHLRSAHRRELE, the protein stability index was 3.45. On the same count and under the same terms, to IPGFHAGTSALWRHLRSAHRRELE belongs 2.76; to FPGFHAGTSALWRHLRSAHRRELE, 1.96. For DPGFHAGTSALWRHLRSAHRRELE, the protein stability index was found to be 3.87. For the variant APGFHAGTSALWRHLRSAHRRELE, the protein stability index was 2.7. RPGFHAGTSALWRHLRSAHRRELE: the protein stability index turned out to be 3.02. As for MPGFHAGTSALWRHLRSAHRRELE, the protein stability index amounted to 3.18. On to YPGFHAGTSALWRHLRSAHRRELE, for which the protein stability index was 2.1. Still for that read-out and setting: the value for PPGFHAGTSALWRHLRSAHRRELE was 3.04; that for WPGFHAGTSALWRHLRSAHRRELE was 2.7; that for VPGFHAGTSALWRHLRSAHRRELE was 2.9. Still for that read-out and setting: to KPGFHAGTSALWRHLRSAHRRELE belongs 3.07; to LPGFHAGTSALWRHLRSAHRRELE, 2.52. Still for that read-out and setting: to CPGFHAGTSALWRHLRSAHRRELE belongs 2.65. For the variant EPGFHAGTSALWRHLRSAHRRELE, the protein stability index worked out at 3.11.

As for QPGFHAGTSALWRHLRSAHRRELE, the protein stability index stood at 3.51. Still for that read-out and setting: the value for SPGFHAGTSALWRHLRSAHRRELE was 1.79; that for TPGFHAGTSALWRHLRSAHRRELE was 3.33; that for HPGFHAGTSALWRHLRSAHRRELE was 3.15. Same read-out and setting: the value for GDGFHAGTSALWRHLRSAHRRELE was 3.38. Same read-out and setting: the value for GAGFHAGTSALWRHLRSAHRRELE was 3.48. As for GCGFHAGTSALWRHLRSAHRRELE, the protein stability index was 1.37.
